From paper PMC4184891, “Involvement of the Iron Regulatory Protein from Eisenia andrei Earthworms in the Regulation of Cellular Iron Homeostasis”

Key:
[1] = molecular target: T1, rEaIRP (iron regulatory protein) (Eisenia andrei, UniProt I1VH49 1-890); assay: EMSA; 6 nM RNA, 5-150 nM protein, tRNA; complex visible at 20 nM, distinct at 50 nM; low affinity; competed by unlabeled EAconsIRE; LightShift RNA EMSA kit binding buffer (composition not given), 5% glycerol, 2 ug tRNA, 20 ul, 30 min room temperature; rEaIRP reduced with 1 mM 2-mercaptoethanol; 6% native PAGE in 0.5X TBE; pH and salt not given; liver extract lanes left out (protein not identified); conditions: protein: recombinant; tags: N-terminal 6xHis (pRSET B); label: biotin; hairpin; optimal fold has unpaired U one nt closer to the loop instead of bulged C
T1 sequence: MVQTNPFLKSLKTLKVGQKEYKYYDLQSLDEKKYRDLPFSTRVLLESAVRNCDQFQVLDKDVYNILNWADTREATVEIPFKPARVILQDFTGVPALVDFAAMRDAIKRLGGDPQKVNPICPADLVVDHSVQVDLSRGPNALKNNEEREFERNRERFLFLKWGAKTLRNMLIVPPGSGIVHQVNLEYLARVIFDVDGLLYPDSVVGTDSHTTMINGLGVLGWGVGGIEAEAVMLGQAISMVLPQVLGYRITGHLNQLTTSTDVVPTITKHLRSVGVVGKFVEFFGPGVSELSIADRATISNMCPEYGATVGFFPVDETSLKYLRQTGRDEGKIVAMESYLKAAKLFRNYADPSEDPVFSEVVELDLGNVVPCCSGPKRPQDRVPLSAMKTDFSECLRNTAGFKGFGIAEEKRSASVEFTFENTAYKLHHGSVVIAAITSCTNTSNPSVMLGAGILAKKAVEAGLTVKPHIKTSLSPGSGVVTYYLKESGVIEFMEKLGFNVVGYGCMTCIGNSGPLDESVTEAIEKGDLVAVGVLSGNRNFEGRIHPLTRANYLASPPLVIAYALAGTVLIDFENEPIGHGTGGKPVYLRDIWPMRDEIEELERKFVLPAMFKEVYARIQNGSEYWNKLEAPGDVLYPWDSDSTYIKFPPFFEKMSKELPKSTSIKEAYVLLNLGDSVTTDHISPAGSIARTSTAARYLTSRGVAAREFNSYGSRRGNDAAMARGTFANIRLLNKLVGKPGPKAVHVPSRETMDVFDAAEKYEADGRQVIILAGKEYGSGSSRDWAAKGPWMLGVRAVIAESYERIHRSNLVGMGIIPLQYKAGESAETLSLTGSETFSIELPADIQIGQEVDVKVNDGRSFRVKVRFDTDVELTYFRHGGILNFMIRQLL

[2] = molecular target: T1, rEaIRP (iron regulatory protein); assay: EMSA; 6 nM RNA, 50 nM protein, tRNA; reduced by 200-fold unlabeled MAMconsIRE; LightShift RNA EMSA kit binding buffer (composition not given), 5% glycerol, 2 ug tRNA, 20 ul, 30 min room temperature; rEaIRP reduced with 1 mM 2-mercaptoethanol; 6% native PAGE in 0.5X TBE; pH and salt not given; liver extract lanes left out (protein not identified); conditions: protein: recombinant; tags: N-terminal 6xHis (pRSET B); label: biotin; hairpin with bulged C

Row | Binder | binding result [1] | binding result [2]
1 | GGGUGCUUUGCUGCGUCAGUGUGCGUGCGAGCUAA (structured_RNA, Bio-11-UTP incorporated in transcription (probe)) [EAconsIRE] | binds | –
2 | GGGUUUCCUGCUUCAACAGUGCUUGGACGGAACCC (structured_RNA, Bio-11-UTP incorporated in transcription (probe)) [MAMconsIRE] | – | binds
